Laboratory results taken from US20230295310A1 (ABCELLERA BIOLOGICS, published 2023).
Residue numbers refer to the chain shown, from its start.

B1: mAb 115 (antibody, V domains shown)
VH: EVQLVESGGGLVKTGGSHRLSCVASGFSFKKAWMNWVRQAPGKGLEWVGRIKRNSDGGTTDYAAPVKGRFILSRDDSKNTLYLQMNSLKTEDTAVYYCTTLDSSSWYVGYYYMDVWGKGTTVTVSS
VL: DIQMTQSPSSVSASVGDRVTITCRASQDINNWLAWYQQKPGKAPKILIYTASNLQSGVPSRFSGSGSGTDFTLTISSLQPEDFATYFCQQAHGLPITFGQGTRLEIK
B2: mAb 116 (antibody, V domains shown)
VH: B1 VH with H18L, I71T
VL: B1 VL with S9F, N53S, F87Y, G93S
B3: mAb 120 (antibody, V domains shown)
VH: B1 VH with H18L, S55T, T60A, I71T, N79K, Y82F, W106Y
VL: B1 VL with I46L, N53S, S76G, F87Y, G93S
B4: mAb 127 (antibody, V domains shown)
VH: B1 VH
VL: B1 VL with S77T
B5: mAb 130 (antibody, V domains shown)
VH: B1 VH with H18L, T59A, G68D, I71T
VL: B1 VL with Q3H, V15L, I21F, K39R, I46L, N53S, F87Y, G93S, E105G
B6: mAb 129 (antibody, V domains shown)
VH: B1 VH with G10D, H18L, S55T, T59A, G68D, I71T
VL: DIHMTQSPSSVSASLGDRVTFTCRASQDINNWLAWYQQKPGKAPRLLIYTASSLQSGVPSRFSGSGSGTDFTLTISSLQPDDFATYYCQQAHSLPITFGQGTRLGIE
B7: mAb 123 (antibody, V domains shown)
VH: DVQLVESGGGTVKTGGSLRLSCVASGFSFKKAWMNWVRQAPGKGLEWVGRIKKNSDDGTADYAAPVKGRFTISRDDSKRTLFLQMNSLQTEDTAVYYCTTLDSSSWFVGYYYMDVWGKGTTVTVSS
VL: B1 VL with T20I, I46L, N53S, G68V, T69S, S76D, F87Y, G93S
B8: mAb 117 (antibody, V domains shown)
VH: B1 VH with H18L, S55T, I71T, W106L
VL: B1 VL with I46L, N53S, F87Y, G93S
B9: mAb 118 (antibody, V domains shown)
VH: EVQLVESGGGLVQPGRSLRLSCAASGFTFDDYTMHWVRQAPGKGLEWVSGISWNSGSIGYADSVKGRFTISRDNAKNSLYLQMNSLRAEDTALYYCSKDSSGYGYYLNYSLDVWGKGTTVTVSS
VL: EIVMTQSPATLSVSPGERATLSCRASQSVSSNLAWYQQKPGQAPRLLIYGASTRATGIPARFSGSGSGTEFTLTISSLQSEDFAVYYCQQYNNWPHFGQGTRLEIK
B10: mAb 119 (antibody, V domains shown)
VH: B9 VH
VL: EIVMTQSPATLSVSPGERATLSCRASQSVSNLAWYQQKPGQAPRLLIYGASTRATGIPARFSGSGSGTEFTLTISSLQSEDFAVYYCQQYNNWPHFGQGTRLQIK
B11: mAb 128 (antibody, V domains shown)
VH: B9 VH with S97A, L107Y, N108Y, L111M
VL: EIVMTQSPATLSVSPGERATLSCRASQSVSSNLAWYQQKPGQAPRLLIYGASTRATGIPARFSGSGSGTEFTLTISSLQSEDFAVYYCQLYYNWPHFGQGTRLAIK
B12: mAb 126 (antibody, V domains shown)
VH: B9 VH with D30N, A40V, G59D, S97A, L107Y, N108Y, S110Y, L111M
VL: B11 VL with S31I, Y92H, A104E
B13: mAb 121 (antibody, V domains shown)
VH: B9 VH with A24T, D30A, G59D, N77K, Y95F, S97A, Y105H, L107Y, N108F, S110Y
VL: B11 VL with A9G, E17K, A43G, G50S, A51T, F83S, L90H, Y92N, A104E

Target: human CD3 (human, UniProt P07766 23-207; P04234 22-171; P09693 23-182)
Sequence (P07766 23-207, chain 1 of 3): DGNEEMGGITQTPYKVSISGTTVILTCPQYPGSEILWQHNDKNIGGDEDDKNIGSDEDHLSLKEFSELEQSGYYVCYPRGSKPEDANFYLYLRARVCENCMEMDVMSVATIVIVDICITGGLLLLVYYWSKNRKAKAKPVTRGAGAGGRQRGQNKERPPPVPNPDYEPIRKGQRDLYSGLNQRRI
Sequence (P04234 22-171, chain 2 of 3): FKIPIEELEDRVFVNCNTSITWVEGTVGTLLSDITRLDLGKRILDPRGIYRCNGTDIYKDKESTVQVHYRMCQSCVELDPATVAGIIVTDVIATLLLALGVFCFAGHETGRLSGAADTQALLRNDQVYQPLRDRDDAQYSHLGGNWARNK
Sequence (P09693 23-182, chain 3 of 3): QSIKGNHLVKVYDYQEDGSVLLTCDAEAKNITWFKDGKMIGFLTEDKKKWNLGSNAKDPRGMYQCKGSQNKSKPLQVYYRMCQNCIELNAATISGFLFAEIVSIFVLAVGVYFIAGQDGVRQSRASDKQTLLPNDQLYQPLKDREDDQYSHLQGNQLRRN
Test: cell-based or functional assay

Binder	CD4 EC50 (nM); CD69/CD25 on human T cells, plate-coated antibody	CD8 EC50 (nM); CD69/CD25 on human T cells, plate-coated antibody
B1	7 nM	7.16 nM
B2	6.96 nM	7.01 nM
B3	6.41 nM	6.46 nM
B4	10.2 nM	10.3 nM
B5	10.9 nM	10.8 nM
B6	12.5 nM	12.5 nM
B7	11.7 nM	11.6 nM
B8	6.49 nM	6.59 nM
B9	10.4 nM	11.2 nM
B10	12.9 nM	13.8 nM
B11	11.6 nM	11.7 nM
B12	10.2 nM	11 nM
B13	12.3 nM	12.3 nM
